Results reported in patent publication US12460245B2, “Luciferase sequences utilizing infrared-emitting substrates to produce enhanced luminescence” (Promega Corporation, priority 2014, dated 2025).
Several values for one entry are separate records, joined by “and”; a condition that tells them apart may be missing. Equal values may be shown once. Values belong to the molecule of their own block, whether it stands above or below them.

Key:
ATG 1240 = test: Mimicry of tissue attenuation using long pass filters, transfected HEK293T cells; assay type: cell-based, click beetle; settings: HEK293T cells expressing ATG 1240
Description: A transfection complex was prepared by diluting ATG 1240 DNA or Luc2 DNA (pF4Ag-Luc2) to 100 ng/μL, and then 2× serial dilutions prepared in 50 ng/μL pGEM carrier DNA. 40 μL of the diluted DNA was the mixed with 160 μL phenol red free OptiMEM and 16 μL of FuGENE® HD and incubated for 20 min. 5 μL of each transfection complex was added to wells of a 96-well black assay plates and then 100 μL of diluted HEK293T cells (200,000/mL in DMEM+10% FBS) was added. The cells were grown overnight at 37° C. with CO2.
To assay the cells, 4 mM D-luciferin, 2 mM PBI-4813 and 2 mM PBI-4739 substrate solutions were prepared in DMEM+10% FBS. 100 μL of the D-luciferin solution was added to cells expressing Luc2 and ATG 1240, and 100 μL of PBI-4813 or PBI-4739 solution was added to ATG 1240 expressing cells. Samples were incubated for 10 min at 37° C., and luminescence detected on GloMax® Discover (heated to 37° C.) with no filter, 610 nm Long Pass (LP) filter, 665 nm LP filter, 695 nm LP filter, 720 nm LP filter or 760 nm LP filter.

[1] = Combinations of H-acceptor and library screen mutants, lysate luminescence; assay type: biochemical; settings: for Luminescence normalized to CBR luciferase, D-LH2 (luciferin): substrate D-LH2 (luciferin); for Luminescence normalized to CBR luciferase, PBI-4739: substrate PBI-4739; for Luminescence normalized to CBR luciferase, PBI-4813: substrate PBI-4813
Description: (§1) 2. Cell lysates were prepared from cells containing the variants listed in Table 3 by diluting 100 μL of induced culture with 100 μL of lysis buffer (0.3×PLB, 0.006U RQ DNAse1) using a Tecan liquid handling robot. 50 μL of each cell lysate was assayed with either PBI-4813 or PBI-4739 (20 μM in Bright-Glo™ assay buffer containing 1 mM ATP), and luminescence detected on an ImageQuant CCD imager. Luminescence of the variants was normalized to CBR luciferase (FIG. 8).
Combinations of the Hydrogen acceptor mutants identified in Example 6 were designed and prepared using the QuikChange Multi Site-Directed Mutagenesis Kit (Agilent). Variants were cloned and expressed as described in Example 2 except the template was pF4Ag-CBR. Variants were screened as described in Example 6. Luminescence of the variants using luciferin (“D-LH2”), PBI-4813, and PBI-4739 was normalized to CBR luciferase (Table 4 and FIG. 9).

[2] = Luminescence of ATG 1230 and ATG 1240 cell lysates, GloMax Discover with red-sensitive PMT; assay type: biochemical; settings: for Luminescence, PBI-4739 / Luminescence, PBI 4813: cell lysate; for Luminescence, PBI-4739: 20 μM PBI-4739; for Luminescence, PBI 4813: 20 μM PBI-4813, GloMax Discover red-sensitive PMT; for PBI-4813/PBI-4739: ratio of luminescence with the two substrates
Description: as §1
Variant clones identified as ATG 1230 (CBR+389F+444R+251S) and ATG 1240 (CBR+334S+351R) were further evaluated for their luminescence, spectral property, Km and live cell kinetics with either PBI-4813 or PBI-4739. These variants were cloned and expressed as described in Example 2 except the template was pF4Ag-CBR, i.e., no HALOTAG®.
A. Luminescence with PBI-4813 and PBI-4739. Cell lysates of these variant clones were prepared and assayed for luminescence as described in Example 6. Luminescence was detected on a GloMax® Discover equipped with a red-sensitive photomultiplier tube (PMT) and compared to CBR luciferase (Table 5 and FIG. 10).

[3] = Substrate inhibition of luciferase activity at high substrate concentration; assay type: biochemical; settings: PBI-4813 at concentrations greater than ten times the Km
[4] = Recombination of ATG 1240 library mutants, lysate luminescence; assay type: biochemical
Excerpt: 2. […] Luminescence of the variants was normalized to CBR luciferase (FIG. 8). Combinations of the ATG 1240 library mutants identified in Example 9 were designed and prepared using DNA shuffling ([…] USA 91:10747-10751). Briefly, a library of mutant genes was created via DNA shuffling. The mutant genes were then cloned into the pF4Ag vector and screened as described in Example 6. Luminescence was detected on a GloMax® Discover Multimode Detection System and normalized to ATG-1240 luciferase (Table 8 and FIG. 15).

[5] = listed as 251S + 389F + 444R (343 template)

Molecule: O=C(O)[C@H]1CSC(c2nc3ccc(O)cc3s2)=N1 [D-luciferin, D-(−)-2-(6′-hydroxy-2′-benzoth-iazolyl)-Δ^2-thiazolin-4-carboxylic acid]
- luminescence of ATG 1240 when light is attenuated with long pass filters (ATG 1240; 37° C.): may be brighter than with PBI-4739
- luminescence of ATG 1240 at the greatest light attenuation (ATG 1240; long pass filters): comparable

B3: 5G5: ATG 1240 variant S51N + S444R (SEQ ID NO: 4) (protein)
chain: MVKREKNVIYGPEPLHPLEDLTAGEMLFRALRKHSHLPQALVDVVGDESLNYKEFFEATVLLAQSLHNCGYKMNDVVSICAENNTRFFIPVIAAWYIGMIVAPVNESYIPDELCKVMGISKPQIVFTTKNILNKVLEVQSRTNFIKRIIILDTVENIHGCESLPNFISRYSDGNIANFKPLHFDPVEQVAAILCSSGTTGLPKGVMQTHQNICVRLIHALDPRYGTQLIPGVTVLVYLPFFHAFGFHITLGYFMVGLRVIMFRRFDQEAFLKAIQDYEVRSVINVPSVILFLSKSPLVDKYDLSSLRELCCGAAPLAKEVAEVAAKRLNLPGISCGFGLTESTSAIIQTLRDEFKSGSLGRVTPLMAAKIADRETGKALGPNQVGELCIKGPMVSKGYVNNVEATKEAIDDDGWLHSGDFGYYDEDEHFYVVDRYKELIKYKGRQVAPAELEEILLKNPCIRDVAVVGIPDLEAGELPSAFVVKQPGTEITAKEVYDYLAERVSHTKYLRGGVRFVDSIPRNVTGKITRKELLKQLLVKAGGV
- Luminescence normalized to ATG-1240 luciferase, D-LH2 ([4]; substrate D-LH2): 2.8
- Luminescence normalized to ATG-1240 luciferase, PBI-4739 ([4]; substrate PBI-4739): 3.8
- Luminescence normalized to ATG-1240 luciferase, PBI-4813 ([4]; substrate PBI-4813): 4.0

Further lines, with some results ahead:

- Luminescence normalized to CBR luciferase, D-LH2 (luciferin) [1]: 1.0
- Luminescence normalized to CBR luciferase, PBI-4739 [1]: 1.0
- Luminescence normalized to CBR luciferase, PBI-4813 [1]: 1.0
- inhibition of luciferase activity by PBI-4813 [3]: inhibits the activity
B1: CBR: click beetle red luciferase polypeptide of SEQ ID NO: 1 (protein)
chain: MVKREKNVIYGPEPLHPLEDLTAGEMLFRALRKHSHLPQALVDVVGDESLSYKEFFEATVLLAQSLHNCGYKMNDVVSICAENNTRFFIPVIAAWYIGMIVAPVNESYIPDELCKVMGISKPQIVFTTKNILNKVLEVQSRTNFIKRIIILDTVENIHGCESLPNFISRYSDGNIANFKPLHFDPVEQVAAILCSSGTTGLPKGVMQTHQNICVRLIHALDPRYGTQLIPGVTVLVYLPFFHAFGFHITLGYFMVGLRVIMFRRFDQEAFLKAIQDYEVRSVINVPSVILFLSKSPLVDKYDLSSLRELCCGAAPLAKEVAEVAAKRLNLPGIRCGFGLTESTSAIIQTLGDEFKSGSLGRVTPLMAAKIADRETGKALGPNQVGELCIKGPMVSKGYVNNVEATKEAIDDDGWLHSGDFGYYDEDEHFYVVDRYKELIKYKGSQVAPAELEEILLKNPCIRDVAVVGIPDLEAGELPSAFVVKQPGTEITAKEVYDYLAERVSHTKYLRGGVRFVDSIPRNVTGKITRKELLKQLLVKAGGV
- Luminescence, PBI-4739 [2]: 17,431
- Luminescence, PBI 4813 [2]: 98,556
- PBI-4813/PBI-4739 [2]: 5.7

- Luminescence normalized to CBR luciferase, D-LH2 (luciferin) [1, 5]: 0.6 and 0.5
- Luminescence normalized to CBR luciferase, PBI-4739 [1, 5]: 1.6 and 1.4
- Luminescence normalized to CBR luciferase, PBI-4813 [1, 5]: 3.4 and 3.2
- inhibition of luciferase activity by PBI-4813 [3]: inhibits the activity
B2: ATG 1230: CBR variant I389F, S444R, G251S (SEQ ID NO: 3) (protein)
chain: MVKREKNVIYGPEPLHPLEDLTAGEMLFRALRKHSHLPQALVDVVGDESLSYKEFFEATVLLAQSLHNCGYKMNDVVSICAENNTRFFIPVIAAWYIGMIVAPVNESYIPDELCKVMGISKPQIVFTTKNILNKVLEVQSRTNFIKRIIILDTVENIHGCESLPNFISRYSDGNIANFKPLHFDPVEQVAAILCSSGTTGLPKGVMQTHQNICVRLIHALDPRYGTQLIPGVTVLVYLPFFHAFGFHITLSYFMVGLRVIMFRRFDQEAFLKAIQDYEVRSVINVPSVILFLSKSPLVDKYDLSSLRELCCGAAPLAKEVAEVAAKRLNLPGIRCGFGLTESTSAIIQTLGDEFKSGSLGRVTPLMAAKIADRETGKALGPNQVGELCFKGPMVSKGYVNNVEATKEAIDDDGWLHSGDFGYYDEDEHFYVVDRYKELIKYKGRQVAPAELEEILLKNPCIRDVAVVGIPDLEAGELPSAFVVKQPGTEITAKEVYDYLAERVSHTKYLRGGVRFVDSIPRNVTGKITRKELLKQLLVKAGGV
- Luminescence, PBI-4739 [2]: 26,595
- Luminescence, PBI 4813 [2]: 310,342
- PBI-4813/PBI-4739 [2]: 11.7
